# Paper doi:10.1101/2025.08.03.668247, “The structure of Egalitarian in complex with the K10 mRNA localization signal reveals a modular binding surface required for function”
# T1: K659E (Drosophila melanogaster, UniProt Q9W1K4 512-819, K659E)
# T1 sequence: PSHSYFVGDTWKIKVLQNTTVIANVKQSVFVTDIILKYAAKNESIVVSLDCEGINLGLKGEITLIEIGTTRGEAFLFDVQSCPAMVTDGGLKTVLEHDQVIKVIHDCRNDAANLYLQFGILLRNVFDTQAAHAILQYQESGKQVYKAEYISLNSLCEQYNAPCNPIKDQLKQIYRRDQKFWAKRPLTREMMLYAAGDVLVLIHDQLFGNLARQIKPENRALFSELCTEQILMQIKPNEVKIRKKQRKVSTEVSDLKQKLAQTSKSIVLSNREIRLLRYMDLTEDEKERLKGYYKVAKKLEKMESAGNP
# T2: Egl1-819 (Drosophila melanogaster, UniProt Q9W1K4 1-819)
# T2 sequence: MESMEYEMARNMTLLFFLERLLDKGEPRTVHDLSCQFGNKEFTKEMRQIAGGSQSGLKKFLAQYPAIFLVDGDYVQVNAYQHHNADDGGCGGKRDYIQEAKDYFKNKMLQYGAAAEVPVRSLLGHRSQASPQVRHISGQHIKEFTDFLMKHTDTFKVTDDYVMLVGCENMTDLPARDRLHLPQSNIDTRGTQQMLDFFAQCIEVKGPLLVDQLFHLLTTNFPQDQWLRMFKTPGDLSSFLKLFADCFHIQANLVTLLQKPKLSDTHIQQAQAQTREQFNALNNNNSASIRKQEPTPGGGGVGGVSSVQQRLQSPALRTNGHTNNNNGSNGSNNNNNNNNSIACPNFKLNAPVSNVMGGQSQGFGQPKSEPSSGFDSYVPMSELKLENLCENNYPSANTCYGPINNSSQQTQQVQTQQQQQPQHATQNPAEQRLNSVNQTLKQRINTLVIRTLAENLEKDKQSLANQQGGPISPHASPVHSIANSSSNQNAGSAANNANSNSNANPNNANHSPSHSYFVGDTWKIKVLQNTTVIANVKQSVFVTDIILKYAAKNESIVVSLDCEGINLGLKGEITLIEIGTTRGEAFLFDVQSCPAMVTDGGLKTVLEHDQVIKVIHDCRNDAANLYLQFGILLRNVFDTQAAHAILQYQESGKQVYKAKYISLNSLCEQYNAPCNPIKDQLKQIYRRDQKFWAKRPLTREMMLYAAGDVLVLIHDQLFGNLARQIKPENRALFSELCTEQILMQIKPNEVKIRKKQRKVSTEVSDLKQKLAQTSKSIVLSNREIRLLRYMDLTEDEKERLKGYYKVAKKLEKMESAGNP
# T3: K678A (Drosophila melanogaster, UniProt Q9W1K4 512-819, K678A)
# T3 sequence: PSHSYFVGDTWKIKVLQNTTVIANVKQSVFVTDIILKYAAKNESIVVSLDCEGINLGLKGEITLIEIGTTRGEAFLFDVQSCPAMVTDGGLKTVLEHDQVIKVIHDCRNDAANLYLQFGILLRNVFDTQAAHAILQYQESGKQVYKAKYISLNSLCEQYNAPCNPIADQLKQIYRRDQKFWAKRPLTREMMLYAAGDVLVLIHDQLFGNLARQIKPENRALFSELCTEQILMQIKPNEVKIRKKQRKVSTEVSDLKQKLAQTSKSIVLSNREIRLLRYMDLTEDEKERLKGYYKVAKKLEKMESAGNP
# T4: R782E (Drosophila melanogaster, UniProt Q9W1K4 512-819, R782E)
# T4 sequence: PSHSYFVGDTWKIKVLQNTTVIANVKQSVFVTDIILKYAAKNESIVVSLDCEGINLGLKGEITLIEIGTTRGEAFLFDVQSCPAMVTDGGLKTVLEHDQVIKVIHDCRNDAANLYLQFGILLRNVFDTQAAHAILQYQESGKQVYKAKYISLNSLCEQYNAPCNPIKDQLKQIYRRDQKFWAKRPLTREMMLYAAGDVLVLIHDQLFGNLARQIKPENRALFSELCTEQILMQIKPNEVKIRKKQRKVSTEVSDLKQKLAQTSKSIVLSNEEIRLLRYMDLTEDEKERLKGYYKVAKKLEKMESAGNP
# T5: K758E (Drosophila melanogaster, UniProt Q9W1K4 512-819, K758E)
# T5 sequence: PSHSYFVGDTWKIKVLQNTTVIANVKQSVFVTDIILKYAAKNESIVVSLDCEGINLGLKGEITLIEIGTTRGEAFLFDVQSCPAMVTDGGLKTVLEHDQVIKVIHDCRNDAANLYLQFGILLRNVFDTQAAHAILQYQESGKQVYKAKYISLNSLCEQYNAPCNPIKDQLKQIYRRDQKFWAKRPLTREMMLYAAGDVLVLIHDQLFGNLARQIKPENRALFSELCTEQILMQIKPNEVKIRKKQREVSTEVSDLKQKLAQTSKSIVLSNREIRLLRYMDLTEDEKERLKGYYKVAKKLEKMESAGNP
# Assays:
# Assay in all cases: fluorescence anisotropy; FA: 20 mM HEPES-NaOH pH 7.5, 100 mM NaCl, 10% glycerol, 20 C, 10 nM FAM-RNA; competition: 150 nM Egl512-819 + 10 nM FAM-K10 TLS, same buffer
# Conditions in all cases: protein: recombinant; tags: N-terminal GST; label: 5'-6-FAM; hairpin with two bulges
# [1] = molecular target: T1, K659E
# [2] = molecular target: T2, Egl1-819
# [3] = molecular target: T3, K678A
# [4] = molecular target: T4, R782E
# [5] = molecular target: T5, K758E
binder,measurement,setting,value
CUUGAUUGUAUUUUUAAAUUAAUUCUUAAAAACUACAAAUUAAG (structured_RNA) [K10 TLS (FAM)],Kd,[1],418 ± 40 nM
same,Kd,[2],127 ± 7 nM
same,Kd,[3],295 ± 8 nM
same,Kd,[4],235 ± 30 nM
same,Kd,[5],380 ± 65 nM
